The values that follow are results of earlier work, collected in PMC7232523.

pKd: −log10 of the molar value.

For one series, the target named is IL-4Ra (Homo sapiens) (UniProt P24394).
Series [1] has as its target IL-13Ra1/IL-4Ra (Homo sapiens) (UniProt P78552).
UniProt P78552, sequence (P78552 22-343, chain 1 of 2): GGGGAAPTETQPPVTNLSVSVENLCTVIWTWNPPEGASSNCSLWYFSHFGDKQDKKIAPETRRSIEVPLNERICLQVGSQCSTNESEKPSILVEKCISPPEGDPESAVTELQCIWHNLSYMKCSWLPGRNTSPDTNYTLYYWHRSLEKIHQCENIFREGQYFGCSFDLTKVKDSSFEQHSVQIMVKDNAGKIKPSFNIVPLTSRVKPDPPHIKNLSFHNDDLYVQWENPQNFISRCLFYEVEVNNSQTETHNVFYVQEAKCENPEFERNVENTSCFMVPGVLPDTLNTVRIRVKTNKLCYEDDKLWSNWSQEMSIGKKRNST
UniProt P78552, sequence (P24394 26-232, chain 2 of 2, further chain): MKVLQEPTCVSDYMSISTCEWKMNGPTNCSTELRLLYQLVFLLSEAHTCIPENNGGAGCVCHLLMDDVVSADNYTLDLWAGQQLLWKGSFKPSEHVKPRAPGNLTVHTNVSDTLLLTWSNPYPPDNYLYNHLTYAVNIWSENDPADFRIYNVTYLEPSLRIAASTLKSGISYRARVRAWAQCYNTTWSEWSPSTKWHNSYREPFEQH

UniProt P24394, sequence (P24394 26-232): as the sequence (P24394 26-232, chain 2 of 2, further chain) above

The term pKd denotes −log10 of the Kd, conventionally taken in molar units. With IL-4 (from UniProt P05112), the pKd with IL-4Ra (Homo sapiens) is 10.00.

For IL-13 (from UniProt P35225), the pKd in series [1] was 10.46.
